Data published in US20210139589A1 (APEXIGEN, published 2021).
Changes are numbered by the printed parent chain.

T1: human VISTA expressed on the cell surface (HEK293 cells transfected with human VISTA cDNA); native on human … (human, UniProt Q9H7M9 33-311)
T1 construct: whole, on cells; also called PD-1H
T1 sequence (looked up): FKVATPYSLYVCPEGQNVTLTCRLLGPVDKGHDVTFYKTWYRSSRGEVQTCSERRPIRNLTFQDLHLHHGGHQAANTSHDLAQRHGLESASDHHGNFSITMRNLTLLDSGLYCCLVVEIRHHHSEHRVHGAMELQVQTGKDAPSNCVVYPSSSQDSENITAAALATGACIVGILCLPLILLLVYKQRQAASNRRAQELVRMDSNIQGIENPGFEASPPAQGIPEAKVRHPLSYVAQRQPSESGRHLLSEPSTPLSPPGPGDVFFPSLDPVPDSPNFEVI

B1: humanized anti-VISTA antibody 3A5-HZD (antibody, human IgG1, kappa, V domains shown)
VH: EVQLVESGGGLVQPGGSLRLSCAASGFSLSSENWICWVRQAPGKGLEWVGCICGANGGSAYHANWVNGRFTISRDNSKNTLYLQMNSLRAEDTAVYYCARAAGVSNAYYFDLWGQGTLVTVSS
VL: DIQMTQSPSSVSASVGDRVTITCQASQYIYINLAWYQQKPGKAPKLLIYDASDLASGVPSRFSGSGSGTDFTLTISSLQPEDFATYYCQCTYGGSTYGNAFGGGTKVEIKR
notes: kappa light chain
B2: humanized anti-VISTA antibody 2D12-HZD3 (antibody, human IgG1, kappa, V domains shown)
VH: EVQLVESGGGLVQPGGSLRLSCAASGIDLSSYAMGWVRQAPGKGLEWVGIISSSGSAFYASWAKGRFTISRDNSKNTLYLQMNSLRAEDTAVYYCARHYAGYTTPYYFNFWGQGTLVTVSS
VL: AIQMTQSPSSLSASVGDRVTITCQASENIYSNLAWYQQKPGKAPKVLIYAASDLASGVPSRFSGSGSGTDFTLTISSLQPEDFATYYCQQGFSSSNVDNAFGGGTKVEIKR
notes: kappa light chain
B3: humanized anti-VISTA antibody 14D8-HZD2 (antibody, human IgG1, kappa, V domains shown)
VH: EVQLVESGGGLVQPGGSLRLSCAASGFDLSSAYYMCWVRQAPGKGLEWVGCIATGSGSTYYASWAKGRFTISRDNSKNTLYLQMNSLRAEDTAVYYCARAPYYSYDGYDYALNLWGQGTLVTVSS
VL: DIQMTQSPSSVSASVGDRVTITCQASEDIVTYLAWYQQKPGKAPKLLIYAASTLASGVPSRFSGSGSGTDFTLTISSLQPEDFATYYCQQTYNYADTDNAFGGGTKVEIKR
notes: kappa light chain
B4: humanized anti-VISTA antibody 29G7-HZD2 (antibody, human IgG1, kappa, V domains shown)
VH: EVQLVESGGGLVQPGGSLRLSCAASGFSLSSYAMGWVRQAPGKGLEWVGIIIVSGNIYYASWAKGRFTISRDNSKNTLYLQMNSLRAEDTAVYYCARGDGYTYGLWGQGTLVTVSS
VL: DIQMTQSPSTLSASVGDRVTITCQASQSVYSRYLAWYQQKPGKAPKLLIYSASTLASGVPSRFSGSGSGTEFTLTISSLQPDDFATYYCQGTFYIPDYIDGFGGGTKVEIKR
notes: kappa light chain
B5: humanized anti-VISTA antibody 29G7-HZD4 (antibody, human IgG1, kappa, V domains shown)
VH: B4 VH
VL: EIVMTQSPATLSLSPGERATLSCQASQSVYSRYLAWYQQKPGQAPRLLIYSASTLASGIPARFSGSGSGTDFTLTISSLQPEDFAVYYCQGTFYIPDYIDGFGGGTKVEIKR
notes: kappa light chain
B6: humanized anti-VISTA antibody 14F1-HZD2 (antibody, human IgG1, kappa, V domains shown)
VH: EVQLLESGGGLVQPGGSLRLSCAASGFSFSSSYYMCWVRQAPGKGLEWVACFYAGFSGSTYYASWAKGRFTISRDNSKNTLYLQMNSLRAEDTAVYYCAKGASTYGYTGYDYAGDYFILWQPGTLVTVSS
VL: DIQMTQSPSSVSASVGDRVTITCQASQNIYSNLAWYQQKPGKAPKLLIYAASNLASGVPSRFSGSGSGTDFTLTISSLQPEDFATYYCQSAYYSSSADSYNAFGGGTKVEIKR
notes: kappa light chain
B7: humanized anti-VISTA antibody 41A11-HZD2 (antibody, human IgG1, kappa, V domains shown)
VH: B6 VH with A50G, S59G, S103N, I118T, Q121G, P122Q
VL: DIQMTQSPSTLSASVGDRVTITCQASQNIGSNLAWYQQKPGKAPKLLIYAASNLESGVPSRFSGSGSGTEFTLTISSLQPDDFATYYCQSAYYSSVDSYNTFGGGTKVEIKR
notes: kappa light chain

biological target: T1, human VISTA expressed on the cell …; test: method not stated; table follows flow cytometry on HEK293 cells transfected with human VISTA

Binder	Kd [nM]
B1	0.293
B2	1.31
B3	2.2
B4	0.281
B5	0.295
B6	2.19
B7	1.35

biological target: T1, human VISTA expressed on the cell …; test: flow cytometry on HEK293 cells transfected with human VISTA, detection with anti-human Ig; EC50 table under the graph
Protocol: In order to examine the ability of the 7 humanized anti-VISTA antibodies to bind to cell surface expressed VISTA, HEK293 cells were transfected with human VISTA cDNA for 24 hours using Fugene 6 transfection reagent. Cells were harvested by trypsinization, re-suspended in FACS buffer and plated in 96-well plates. Cells were incubated with the concentration of anti-VISTA antibodies indicated in FIG. 5 for 30 minutes on ice. Antibodies were detected using anti-human Ig antibodies and binding was assessed on the MACSQuant flow cytometer (FIG. 5).

Binder	EC50 [nM]
B1	0.483
B2	1.75
B3	2.83
B4	0.463
B5	0.477
B6	2.95
B7	1.84
